Changes are numbered by the printed parent chain. Numbers in names are those of the source.
Experiments:
Experiment in all cases: split reporter (BiFC, NanoBiT); BiFC quantified by flow cytometry: 293T cells co-transfected with 0.25 μg of each BiFC construct and mRFP1, harvested about 14 h after transfection and fixed; percent of mRFP+ cells that are YFP+, and mean intensity of YFP+ cells
Conditions in all cases: partners not purified
H65R-CY = biological target: T1, H65R-CY (human, UniProt Q9HC16 1-384, H65R)
T1 construct: APOBEC3G (A3G), human, CD1 mutant H65R; as A3G-CY with the mutation; also called CD1 mutant H65R of A3G-CY; source: HeLa and 293T cells, transfected, in living cells; 293T, transfected, in lysate (co-IP); not shown: CY (YFP residues 173-238), C-terminal, kept

F70A-CY = biological target: T2, F70A-CY (human, UniProt Q9HC16 1-384, F70A)
T2 construct: APOBEC3G (A3G), human, CD1 mutant F70A; as A3G-CY with the mutation; also called CD1 mutant F70A of A3G-CY; source: HeLa and 293T cells, transfected, in living cells; 293T, transfected, in lysate (co-IP); not shown: CY (YFP residues 173-238), C-terminal, kept

Y91A-CY = biological target: T3, Y91A-CY (human, UniProt Q9HC16 1-384, Y91A)
T3 construct: APOBEC3G (A3G), human, CD1 mutant Y91A; as A3G-CY with the mutation; also called CD1 mutant Y91A of A3G-CY; source: HeLa and 293T cells, transfected, in living cells; not shown: CY (YFP residues 173-238), C-terminal, kept

B1: H65R-NY (natural protein, human, UniProt Q9HC16 1-384, looked up)
chain: MKPHFRNTVERMYRDTFSYNFYNRPILSRRNTVWLCYEVKTKGPSRPPLDAKIFRGQVYSELKYRPEMRFFHWFSKWRKLHRDQEYEVTWYISWSPCTKCTRDMATFLAEDPKVTLTIFVARLYYFWDPDYQEALRSLCQKRDGPRATMKIMNYDEFQHCWSKFVYSQRELFEPWNNLPKYYILLHIMLGEILRHSMDPPTFTFNFNNEPWVRGRHETYLCYEVERMHNDTWVLLNQRRGFLCNQAPHKHGFLEGRHAELCFLDVIPFWKLDLDQDYRVTCFTSWSPCFSCAQEMAKFISKNKHVSLCIFTARIYDDQGRCQEGLRTLAEAGAKISIMTYSEFKHCWDTFVDHQGCPFQPWDGLDEHSQDLSGRLRAILQNQEN
notes: APOBEC3G (A3G), human, CD1 mutant H65R; as A3G-NY with the mutation; also called CD1 mutant H65R of A3G-NY; source: HeLa and 293T cells, transfected, in living cells; not shown: NY (YFP residues 1-172), C-terminal, kept
- percent of mRFP+ cells that are YFP+ (BiFC) (H65R-CY): < 0.1%

B2: F70A-NY (natural protein, human, UniProt Q9HC16 1-384, looked up)
chain: B1 chain with R65H, F70A
notes: APOBEC3G (A3G), human, CD1 mutant F70A; as A3G-NY with the mutation; also called CD1 mutant F70A of A3G-NY; source: HeLa and 293T cells, transfected, in living cells; not shown: NY (YFP residues 1-172), C-terminal, kept
- percent of mRFP+ cells that are YFP+ (BiFC) (F70A-CY): < 0.1%

B3: Y91A-NY (natural protein, human, UniProt Q9HC16 1-384, looked up)
chain: B1 chain with R65H, Y91A
notes: APOBEC3G (A3G), human, CD1 mutant Y91A; as A3G-NY with the mutation; also called CD1 mutant Y91A of A3G-NY; source: HeLa and 293T cells, transfected, in living cells; not shown: NY (YFP residues 1-172), C-terminal, kept
- percent of mRFP+ cells that are YFP+ (BiFC) (Y91A-CY): < 0.1%
